Reference: patent US20220064329A1 (Novo Nordisk, published 2022)

T1: recombinant human activated Factor VII (FVIIa) (human, UniProt P08709 61-212; P08709 213-466, ten glutamate residues of the Gla domain may be gamma-carboxylated)
T1 construct: chains tethered by a disulfide bond; also called Factor VIIa; rFVIIa
T1 sequence 1: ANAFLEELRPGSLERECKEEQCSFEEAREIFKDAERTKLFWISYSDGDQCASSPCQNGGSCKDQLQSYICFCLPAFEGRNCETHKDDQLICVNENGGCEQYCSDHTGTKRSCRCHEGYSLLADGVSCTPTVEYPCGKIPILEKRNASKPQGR
T1 sequence 2: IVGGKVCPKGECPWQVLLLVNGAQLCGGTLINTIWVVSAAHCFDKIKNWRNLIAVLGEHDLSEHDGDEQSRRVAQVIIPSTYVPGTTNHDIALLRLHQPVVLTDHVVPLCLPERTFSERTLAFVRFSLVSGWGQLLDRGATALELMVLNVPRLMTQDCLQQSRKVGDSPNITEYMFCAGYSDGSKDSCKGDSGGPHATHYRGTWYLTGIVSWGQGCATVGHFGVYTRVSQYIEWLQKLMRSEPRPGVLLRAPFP


biological target: T1, recombinant human activated Factor VII …; experiment: BLI (Fortebio)

Row | Kd [nM] | Binder
1 | 13 | VH SEQ ID NO 610 / VL SEQ ID NO 334 (antibody, IgG4, V domains shown, humanized 11F2; IgG4 S228P/kappa) VH: QVQLQESGPGLVKPSQTLSLTCTVSGGSITSDSAWSWIRQPPGKGLEWIGYIQYSGSTNYNPSLKSRVTISVDTSKNQFSLKLSSVTAADTAVYYCARSVNYYGNSFAVGYWGQGTLVTVSS VL: EIVLTQSPATLSLSPGERATLSCRASQGISDYLHWYQQKPGQAPRLLIKYASQPATGIPARFSGSGSGTDFTLTISSLEPEDFAVYYCQNGHSFPLTFGQGTKLEIK
2 | 17 | VH SEQ ID NO 610 / VL SEQ ID NO 486 (antibody, IgG4, V domains shown, humanized 11F2; IgG4 S228P/kappa) VH: QVQLQESGPGLVKPSQTLSLTCTVSGGSITSDSAWSWIRQPPGKGLEWIGYIQYSGSTNYNPSLKSRVTISVDTSKNQFSLKLSSVTAADTAVYYCARSVNYYGNSFAVGYWGQGTLVTVSS VL: EIVLTQSPATLSLSPGERATLSCRASQGVSDYLHWYQQKPGQAPRLLIKYASQPATGIPARFSGSGSGTDFTLTISSLEPEDFGVYYCQNGHSFPLTFGQGTKLEIK
3 | 380 | VH SEQ ID NO 610 / VL SEQ ID NO 390 (antibody, IgG4, V domains shown, humanized 11F2; IgG4 S228P/kappa) VH: QVQLQESGPGLVKPSQTLSLTCTVSGGSITSDSAWSWIRQPPGKGLEWIGYIQYSGSTNYNPSLKSRVTISVDTSKNQFSLKLSSVTAADTAVYYCARSVNYYGNSFAVGYWGQGTLVTVSS VL: EIVLTQSPATLSLSPGERATLSCRASQGVSDYLAWYQQKPGEAPRLLIKYASQPATGIPARFSGSGSGTDFTLTISSLEPEDFAVYYCQNGHSFPLTFGQGTKLEIK
4 | 11 | VH SEQ ID NO 610 / VL SEQ ID NO 350 (antibody, IgG4, V domains shown, humanized 11F2; IgG4 S228P/kappa) VH: QVQLQESGPGLVKPSQTLSLTCTVSGGSITSDSAWSWIRQPPGKGLEWIGYIQYSGSTNYNPSLKSRVTISVDTSKNQFSLKLSSVTAADTAVYYCARSVNYYGNSFAVGYWGQGTLVTVSS VL: EIVLTQSPATLSLSPGERATLSCRASQGISDYLHWYQQKPGQAPRLLIKYTSQPATGIPARFSGSGSGTDFTLTISSLEPEDFAVYYCQNGHSFPLTFGAGTKLELK
5 | 17 | VH SEQ ID NO 610 / VL SEQ ID NO 382 (antibody, IgG4, V domains shown, humanized 11F2; IgG4 S228P/kappa) VH: QVQLQESGPGLVKPSQTLSLTCTVSGGSITSDSAWSWIRQPPGKGLEWIGYIQYSGSTNYNPSLKSRVTISVDTSKNQFSLKLSSVTAADTAVYYCARSVNYYGNSFAVGYWGQGTLVTVSS VL: EIVLTQSPATLSLSPGERATLSCRASQGLSDYLHWYQQKPGEAPRLLIKYASQPATGIPARFSGSGSGTDFTLTISSLEPEDFAVYYCQNGHSFPLTFGQGTKLEIK
6 | 33 | VH SEQ ID NO 610 / VL SEQ ID NO 478 (antibody, IgG4, V domains shown, humanized 11F2; IgG4 S228P/kappa) VH: QVQLQESGPGLVKPSQTLSLTCTVSGGSITSDSAWSWIRQPPGKGLEWIGYIQYSGSTNYNPSLKSRVTISVDTSKNQFSLKLSSVTAADTAVYYCARSVNYYGNSFAVGYWGQGTLVTVSS VL: EIVLTQSPATLSLSPGERATLSCRASQGVSDYLHWYQQKPGQAPRLLIKYASQPATGIPARFSGSGSGTDFTLTISSLEPEDFAVYYCQQGHSFPLTFGQGTKLEIK
7 | 16 | VH SEQ ID NO 610 / VL SEQ ID NO 470 (antibody, IgG4, V domains shown, humanized 11F2; IgG4 S228P/kappa) VH: QVQLQESGPGLVKPSQTLSLTCTVSGGSITSDSAWSWIRQPPGKGLEWIGYIQYSGSTNYNPSLKSRVTISVDTSKNQFSLKLSSVTAADTAVYYCARSVNYYGNSFAVGYWGQGTLVTVSS VL: EIVLTQSPATLSLSPGERATLSCRASQGVSDYLHWYQQKPGQAPRLLIKYASQPATGIPARFSGSGSGTDFTLTISSLEPEDFAVYYCQNGHSFPLTFGQGTKLEIK
8 | 49 | VH SEQ ID NO 610 / VL SEQ ID NO 446 (antibody, IgG4, V domains shown, humanized 11F2; IgG4 S228P/kappa) VH: QVQLQESGPGLVKPSQTLSLTCTVSGGSITSDSAWSWIRQPPGKGLEWIGYIQYSGSTNYNPSLKSRVTISVDTSKNQFSLKLSSVTAADTAVYYCARSVNYYGNSFAVGYWGQGTLVTVSS VL: EIVLTQSPATLSLSPGERATLSCRASQGVSDYLAWYQQKPGQAPRLLIKYTSQPATGIPARFSGSGSGTDFTLTISSLEPEDFAVYYCQNGHSFPLTFGQGTKLEIK
9 | 16 | VH SEQ ID NO 610 / VL SEQ ID NO 342 (antibody, IgG4, V domains shown, humanized 11F2; IgG4 S228P/kappa) VH: QVQLQESGPGLVKPSQTLSLTCTVSGGSITSDSAWSWIRQPPGKGLEWIGYIQYSGSTNYNPSLKSRVTISVDTSKNQFSLKLSSVTAADTAVYYCARSVNYYGNSFAVGYWGQGTLVTVSS VL: EIVLTQSPATLSLSPGERATLSCRASQGISDYLHWYQQKPGQAPRLLIKYTSQPATGIPARFSGSGSGRDFTLTISSLEPEDFAVYYCQNGHSFPLTFGAGTKLELK
10 | 17 | VH SEQ ID NO 610 / VL SEQ ID NO 462 (antibody, IgG4, V domains shown, humanized 11F2; IgG4 S228P/kappa) VH: QVQLQESGPGLVKPSQTLSLTCTVSGGSITSDSAWSWIRQPPGKGLEWIGYIQYSGSTNYNPSLKSRVTISVDTSKNQFSLKLSSVTAADTAVYYCARSVNYYGNSFAVGYWGQGTLVTVSS VL: EIVLTQSPATLSLSPGERATLSCRASQGVSDYLHWYQQKPGQAPRLLIKYASQPATGIPARFSGSGSGTDFTLTISSLEPEDFAVYYCQNGHSFPLTFGAGTKLEIK
11 | 1500 | VH SEQ ID NO 610 / VL SEQ ID NO 430 (antibody, IgG4, V domains shown, humanized 11F2; IgG4 S228P/kappa) VH: QVQLQESGPGLVKPSQTLSLTCTVSGGSITSDSAWSWIRQPPGKGLEWIGYIQYSGSTNYNPSLKSRVTISVDTSKNQFSLKLSSVTAADTAVYYCARSVNYYGNSFAVGYWGQGTLVTVSS VL: EIVLTQSPATLSLSPGERATLSCRASQGVSDYLAWYQQKPGQAPRLLIKYASQPATGIPARFSGSGSGTDFTLTISSLEPEDFGVYYCQNGHSFPLTFGQGTKLEIK
12 | 11 | VH SEQ ID NO 610 / VL SEQ ID NO 358 (antibody, IgG4, V domains shown, humanized 11F2; IgG4 S228P/kappa) VH: QVQLQESGPGLVKPSQTLSLTCTVSGGSITSDSAWSWIRQPPGKGLEWIGYIQYSGSTNYNPSLKSRVTISVDTSKNQFSLKLSSVTAADTAVYYCARSVNYYGNSFAVGYWGQGTLVTVSS VL: EIVLTQSPATLSLSPGERATLSCRASQGISDYLHWYQQKPGQAPRLLIKYTSQPATGIPARFSGSGSGTDFTLTISSLEPEDFAVYYCQNGHSFPLTFGQGTKLEIK
13 | 480 | VH SEQ ID NO 610 / VL SEQ ID NO 406 (antibody, IgG4, V domains shown, humanized 11F2; IgG4 S228P/kappa) VH: QVQLQESGPGLVKPSQTLSLTCTVSGGSITSDSAWSWIRQPPGKGLEWIGYIQYSGSTNYNPSLKSRVTISVDTSKNQFSLKLSSVTAADTAVYYCARSVNYYGNSFAVGYWGQGTLVTVSS VL: EIVLTQSPATLSLSPGERATLSCRASQGVSDYLAWYQQKPGQAPRLLIKYASQPATGIPARFSGSGSGTDFTLTISSLEPEDFAVYYCQNGHSFPLTFGAGTKLEIK
14 | 780 | VH SEQ ID NO 610 / VL SEQ ID NO 414 (antibody, IgG4, V domains shown, humanized 11F2; IgG4 S228P/kappa) VH: QVQLQESGPGLVKPSQTLSLTCTVSGGSITSDSAWSWIRQPPGKGLEWIGYIQYSGSTNYNPSLKSRVTISVDTSKNQFSLKLSSVTAADTAVYYCARSVNYYGNSFAVGYWGQGTLVTVSS VL: EIVLTQSPATLSLSPGERATLSCRASQGVSDYLAWYQQKPGQAPRLLIKYASQPATGIPARFSGSGSGTDFTLTISSLEPEDFAVYYCQNGHSFPLTFGQGTKLEIK
15 | 17 | VH SEQ ID NO 610 / VL SEQ ID NO 494 (antibody, IgG4, V domains shown, humanized 11F2; IgG4 S228P/kappa) VH: QVQLQESGPGLVKPSQTLSLTCTVSGGSITSDSAWSWIRQPPGKGLEWIGYIQYSGSTNYNPSLKSRVTISVDTSKNQFSLKLSSVTAADTAVYYCARSVNYYGNSFAVGYWGQGTLVTVSS VL: EIVLTQSPATLSLSPGERATLSCRASQGVSDYLHWYQQKPGQAPRLLIKYASQPATGIPARFSGSGSGTDFTLTISSLEPEDVAVYYCQNGHSFPLTFGQGTKLEIK
16 | 17 | VH SEQ ID NO 610 / VL SEQ ID NO 502 (antibody, IgG4, V domains shown, humanized 11F2; IgG4 S228P/kappa) VH: QVQLQESGPGLVKPSQTLSLTCTVSGGSITSDSAWSWIRQPPGKGLEWIGYIQYSGSTNYNPSLKSRVTISVDTSKNQFSLKLSSVTAADTAVYYCARSVNYYGNSFAVGYWGQGTLVTVSS VL: EIVLTQSPATLSLSPGERATLSCRASQGVSDYLHWYQQKPGQAPRLLIKYTSQPATGIPARFSGSGSGTDFTLTISSLEPEDFAVYYCQNGHSFPLTFGQGTKLEIK
17 | 330 | VH SEQ ID NO 610 / VL SEQ ID NO 366 (antibody, IgG4, V domains shown, humanized 11F2; IgG4 S228P/kappa) VH: QVQLQESGPGLVKPSQTLSLTCTVSGGSITSDSAWSWIRQPPGKGLEWIGYIQYSGSTNYNPSLKSRVTISVDTSKNQFSLKLSSVTAADTAVYYCARSVNYYGNSFAVGYWGQGTLVTVSS VL: EIVLTQSPATLSLSPGERATLSCRASQGLSDYLAWYQQKPGEAPRLLIKYASQPATGIPARFSGSGSGTDFTLTISSLEPEDFAVYYCQNGHSFPLTFGQGTKLEIK
18 | 12 | VH SEQ ID NO 618 / VL SEQ ID NO 310 (antibody, IgG4, V domains shown, humanized 11F2; IgG4 S228P/kappa) VH: QVQLQESGPGLVKPSQTLSLTCTVSGYSISSDSAWSWIRQFPGKGLEWIGYIQYSGSTNYNPSLKSRVTISRDTSKNQFSLKLSSVTAADTAVYYCARSVNYYGNSFAVGPWGQGTLVTVSS VL: EIVLTQSPATLSLSPGERATLSCRASQGISDYLAWYQQKPGQAPRLLIKYASQPATGIPARFSGSGSGTDFTLTISSLEPEDFAVYYCQNGHSFPLTFGQGTKLEIK
19 | 620 | VH SEQ ID NO 610 / VL SEQ ID NO 438 (antibody, IgG4, V domains shown, humanized 11F2; IgG4 S228P/kappa) VH: QVQLQESGPGLVKPSQTLSLTCTVSGGSITSDSAWSWIRQPPGKGLEWIGYIQYSGSTNYNPSLKSRVTISVDTSKNQFSLKLSSVTAADTAVYYCARSVNYYGNSFAVGYWGQGTLVTVSS VL: EIVLTQSPATLSLSPGERATLSCRASQGVSDYLAWYQQKPGQAPRLLIKYASQPATGIPARFSGSGSGTDFTLTISSLEPEDVAVYYCQNGHSFPLTFGQGTKLEIK
20 | 16 | VH SEQ ID NO 610 / VL SEQ ID NO 454 (antibody, IgG4, V domains shown, humanized 11F2; IgG4 S228P/kappa) VH: QVQLQESGPGLVKPSQTLSLTCTVSGGSITSDSAWSWIRQPPGKGLEWIGYIQYSGSTNYNPSLKSRVTISVDTSKNQFSLKLSSVTAADTAVYYCARSVNYYGNSFAVGYWGQGTLVTVSS VL: EIVLTQSPATLSLSPGERATLSCRASQGVSDYLHWYQQKPGEAPRLLIKYASQPATGIPARFSGSGSGTDFTLTISSLEPEDFAVYYCQNGHSFPLTFGQGTKLEIK
